According to the RNAGym collection of RNA variant scans (doi:10.1101/gr.219683.116):

B1: mRNA-splicing (parent)
chain: AGUUGCUGCUGGGAGCUCCAGCACAGUGAAAUGGACAGAAGGGCAGAGCAA

Variants of: B1
Test: exon inclusion enrichment index; higher = more inclusion; WT1 exon 5 minigene, HEK293

Variant	exon inclusion enrichment index
A20G	1.58
G5A U7C G8A U10C G11A	1.34
U27A G28C	0.192
A47U G48A	0.123
G5C C6U G8C C9U U10C C22A A23G	2.07
G5C C6U U7A C9A U10A	0.0605
G5U G8U C9U A30U A31U	0.0523
G5C C6G U7C U10C A31C U32G	3.82
C6A U7A C9A U10A C24U	0.161
C6A U7A C9A U10A G42U G43C	0.532
G5C C6G U7C U10C G11A G12C	1.51
G5A U7C G8A U10C A30G A31U	0.691
G5C C6U G8C C9U U10C G46A A47U	2.29
G5C C6U G8C C9U U10C G46A A47C	2.56
G26A U27G	0.311
G5A C6U U7A G8U C9A G15A C16U	0.0138
G5A C6U U7A G8U C9A G15A C16A	0.0139
G5A U7C G8A U10C G34U	0.607
G5A C6U U7A G8U C9A A29U	0.0147
C6A U7A C9A U10A G26C U27C	2.32
U3G U4G G5C C6A U7C G8A U10A	0.0147

Variant	exon inclusion enrichment index
C6A U7C C9A U10C A14C G15C	1.7
G5C C6G U7C U10C C22A A23U	2.83
C6A U7C C9A U10C G13C A14U	2.57
G5A U7C G8A U10C G28U	0.556
G12A	1.7
G5A U7C G8A U10C A45G G46U	2.26
A39U A40G	0.0141
G5U C6U U7C G8A U10A	0.0434
G5A U7C G8A C9A U10G	0.509
G5C C6A U7C G8A U10A G26U	0.091
G5C C6A U7C G8A U10C	1.71
G5C C6U G8C C9U U10C G46U	1.35
G5U U7A G8A C9U	0.454
G5U G8U C9U C36A A37C	0.21
G5A C6U U7A G8U C9A G38C	0.0329
G5A C6U U7A G8U C9A C36G A37G	0.00777
G5C C6G U7C U10C A47C G48U	2.62
G5C C6U G8C C9U U10C A35C	0.541
A40C G41C	0.92
U32G G33A	0.042
G5C C6A U7C G8A U10A G33C	0.162

Variant	exon inclusion enrichment index
G5C C6G U7C U10C A14G G15A	2.07
G5C C6A U7C G8A U10A A30U A31G	0.105
G5C C6A U7C G8A U10A A30C A31U	0.168
C6A U7A C9A U10A C36G A37U	0.216
C6A U7A C9A U10A G42C	1.99
G5A U7C G8A U10C A25C	4.03
G2C U3A G5A C6G U7G C9A	0.0159
G5C C6A U7C G8A U10A A29U A30C	0.0766
G5A U7G C9A	1.5
G5A C6A U7C C9A U10C	2.47
C6A U7C C9A U10C G28A A29U	1.29
G5A	0.039
G5U C6A U7C G8A U10A	0.0713
G5A C6G U7G G8A C9U	0.0075
G5A C6G U7G G8A C9G	0.0105
G5C C6U G8C C9U U10C G34A A35C	1.47
G5C C6U G8C C9U U10C G42U G43C	1.23
U7C G8A	1.44
G21A C22G	2.36
G2C U3C G5C C6U G8C C9U U10C	1.91
U4A C6G U7G C9A	0.00639

Variant	exon inclusion enrichment index
G5A U7C G8A U10C G21A	1.67
G5A C6U U7A G8U C9A C44A A45U	0.189
C6A U7C C9A U10C G41U G42U	2.65
C6A U7C C9A U10C G41U G42C	3.58
G5C C6A U7C G8A U10A C19G A20C	0.111
G5A C6U U7A G8U C9A A25G	0.293
G5A U7C G8A U10C A35U C36A	0.00832
G5A U7C G8A U10C A35U C36U	0.0422
G34A A35U	0.0211
G5A C6G U7G C9A G43C C44G	0.0277
G5A C6G U7G C9A C22A A23G	0.000928
G5A C6G U7G C9A G41C G42U	0.0271
G5U G8U C9U G43U	0.16
G5U G8U C9U G43A	0.671
G5U G8U C9U G12C G13A	0.0253
G5U G8U C9U G12C G13C	0.00507
G5A C6U U7A C9A U10A	0.0444
G5A C6U U7A G8U C9A G21A C22A	0.0256
G5A C6U U7A G8U C9A G21A C22U	0.021
C6A U7A C9A U10A G15A	0.818
